From US20220062371A1, “LIGAND-DRUG-CONJUGATES AS SUBSTRATES FOR SELECTIVE CLEAVAGE BY THE EXOPEPTIDASE ACTIVITY OF CATHEPSIN B” (DEBIOPHARM RESEARCH & MANUFACTURING S.A., priority 2017, published 2022)

Target: Recombinant human Cathepsin B (human) (UniProt P07858)
Test: cell-based or functional assay

T 1/2 of release of AF-Arg by Cat B: < 5 min
Substance: ADC1, AF-Arg-Lys(PEG4-Mal-trastuzumab)-Phe-OH (antibody)
